The subject of assay [1] is GFP-14-3-3β and its binding proteins. The assay is described as follows: GFP-14-3-3β co-IP with LC-MS/MS label-free quantification, untreated versus PP1c-treated. The arrangement: species or system human.
A further assay deals with GFP-14-3-3β. The assay can be described thus: GFP-14-3-3β co-IP with LC-MS/MS, untreated GFP-14-3-3β versus GFP control (14-3-3 interactome). Format: binding, human.
Setting [2] is: GFP-14-3-3β co-IP LC-MS/MS, PP1 vs untreated, student's t-test, label-free quantification, 3 replicates each.
[3] abbreviates: GFP-14-3-3β co-IP LC-MS/MS, untreated vs GFP, student's t-test, label-free quantification, 3 replicates each.

B1: AP2A1 (protein, UniProt O95782 1-977, looked up)
AP-2 complex subunit alpha-1: MPAVSKGDGMRGLAVFISDIRNCKSKEAEIKRINKELANIRSKFKGDKALDGYSKKKYVCKLLFIFLLGHDIDFGHMEAVNLLSSNKYTEKQIGYLFISVLVNSNSELIRLINNAIKNDLASRNPTFMCLALHCIANVGSREMGEAFAADIPRILVAGDSMDSVKQSAALCLLRLYKASPDLVPMGEWTARVVHLLNDQHMGVVTAAVSLITCLCKKNPDDFKTCVSLAVSRLSRIVSSASTDLQDYTYYFVPAPWLSVKLLRLLQCYPPPEDAAVKGRLVECLETVLNKAQEPPKSKKVQHSNAKNAILFETISLIIHYDSEPNLLVRACNQLGQFLQHRETNLRYLALESMCTLASSEFSHEAVKTHIDTVINALKTERDVSVRQRAADLLYAMCDRSNAKQIVSEMLRYLETADYAIREEIVLKVAILAEKYAVDYSWYVDTILNLIRIAGDYVSEEVWYRVLQIVTNRDDVQGYAAKTVFEALQAPACHENMVKVGGYILGEFGNLIAGDPRSSPPVQFSLLHSKFHLCSVATRALLLSTYIKFINLFPETKATIQGVLRAGSQLRNADVELQQRAVEYLTLSSVASTDVLATVLEEMPPFPERESSILAKLKRKKGPGAGSALDDGRRDPSSNDINGGMEPTPSTVSTPSPSADLLGLRAAPPPAAPPASAGAGNLLVDVFDGPAAQPSLGPTPEEAFLSELEPPAPESPMALLADPAPAADPGPEDIGPPIPEADELLNKFVCKNNGVLFENQLLQIGVKSEFRQNLGRMYLFYGNKTSVQFQNFSPTVVHPGDLQTQLAVQTKRVAAQVDGGAQVQQVLNIECLRDFLTPPLLSVRFRYGGAPQALTLKLPVTINKFFQPTEMAAQDFFQRWKQLSLPQQEAQKIFKANHPMDAEVTKAKLLGFGSALLDNVDPNPENFVGAGIIQTKALQVGCLLRLEPNAQAQMYRLTLRTSKEPVSRHLCELLAQQF
Take B1: the “Difference (log2), PP1 vs untreated” value in assay [1] (pairwise comparison PP1 vs untreated) is -0.1358 log2. Besides, in the assay with GFP-14-3-3β (pairwise comparison untreated vs GFP), the “Difference (log2), untreated vs GFP” value is reported as 1.114 log2.

B2: SF3B2 (protein, UniProt Q13435 1-895, looked up)
Splicing factor 3B subunit 2: MATEHPEPPKAELQLPPPPPPGHYGAWAAQELQAKLAEIGAPIQGNREELVERLQSYTRQTGIVLNRPVLRGEDGDKAAPPPMSAQLPGIPMPPPPLGLPPLQPPPPPPPPPPGLGLGFPMAHPPNLGPPPPLRVGEPVALSEEERLKLAQQQAALLMQQEERAKQQGDHSLKEHELLEQQKRAAVLLEQERQQEIAKMGTPVPRPPQDMGQIGVRTPLGPRVAAPVGPVGPTPTVLPMGAPVPRPRGPPPPPGDENREMDDPSVGPKIPQALEKILQLKESRQEEMNSQQEEEEMETDARSSLGQSASETEEDTVSVSKKEKNRKRRNRKKKKKPQRVRGVSSESSGDREKDSTRSRGSDSPAADVEIEYVTEEPEIYEPNFIFFKRIFEAFKLTDDVKKEKEKEPEKLDKLENSAAPKKKGFEEEHKDSDDDSSDDEQEKKPEAPKLSKKKLRRMNRFTVAELKQLVARPDVVEMHDVTAQDPKLLVHLKATRNSVPVPRHWCFKRKYLQGKRGIEKPPFELPDFIKRTGIQEMREALQEKEEQKTMKSKMREKVRPKMGKIDIDYQKLHDAFFKWQTKPKLTIHGDLYYEGKEFETRLKEKKPGDLSDELRISLGMPVGPNAHKVPPPWLIAMQRYGPPPSYPNLKIPGLNSPIPESCSFGYHAGGWGKPPVDETGKPLYGDVFGTNAAEFQTKTEEEEIDRTPWGELEPSDEESSEEEEEEESDEDKPDETGFITPADSGLITPGGFSSVPAGMETPELIELRKKKIEEAMDGSETPQLFTVLPEKRTATVGGAMMGSTHIYDMSTVMSRKGPAPELQGVEVALAPEELELDPMAMTQKYEEHVREQQAQVEKEDFSDMVAEHAAKQKQKKRKAQPQDSRGGSKKYKEFKF
For the molecule B2, the “Difference (log2), PP1 vs untreated” value in assay [1] (setting [2]) is -0.1579 log2. For the same molecule, the “Difference (log2), untreated vs GFP” value in the assay on GFP-14-3-3β (setting [3]) stood at 2.239 log2.

B3: GEMIN4 (protein, UniProt P57678 1-1058, looked up)
Gem-associated protein 4: MDLGPLNICEEMTILHGGFLLAEQLFHPKALAELTKSDWERVGRPIVEALREISSAAAHSQPFAWKKKALIIIWAKVLQPHPVTPSDTETRWQEDLFFSVGNMIPTINHTILFELLKSLEASGLFIQLLMALPTTICHAELERFLEHVTVDTSAEDVAFFLDVWWEVMKHKGHPQDPLLSQFSAMAHKYLPALDEFPHPPKRLRSDPDACPTMPLLAMLLRGLTQIQSRILGPGRKCCALANLADMLTVFALTEDDPQEVSATVYLDKLATVISVWNSDTQNPYHQQALAEKVKEAERDVSLTSLAKLPSETIFVGCEFLHHLLREWGEELQAVLRSSQGTSYDSYRLCDSLTSFSQNATLYLNRTSLSKEDRQVVSELAECVRDFLRKTSTVLKNRALEDITASIAMAVIQQKMDRHMEVCYIFASEKKWAFSDEWVACLGSNRALFRQPDLVLRLLETVIDVSTADRAIPESQIRQVIHLILECYADLSLPGKNKVLAGILRSWGRKGLSEKLLAYVEGFQEDLNTTFNQLTQSASEQGLAKAVASVARLVIVHPEVTVKKMCSLAVVNLGTHKFLAQILTAFPALRFVEEQGPNSSATFMVSCLKETVWMKFSTPKEEKQFLELLNCLMSPVKPQGIPVAALLEPDEVLKEFVLPFLRLDVEEVDLSLRIFIQTLEANACREEYWLQTCSPFPLLFSLCQLLDRFSKYWQLPKEKRCLSLDRKDLAIHILELLCEIVSANAETFSPDVWIKSLSWLHRKLEQLDWTVGLRLKSFFEGHFKCEVPATLFEICKLSEDEWTSQAHPGYGAGTGLLAWMECCCVSSGISERMLSLLVVDVGNPEEVRLFSKGFLVALVQVMPWCSPQEWQRLHQLTRRLLEKQLLHVPYSLEYIQFVPLLNLKPFAQELQLSVLFLRTFQFLCSHSCRDWLPLEGWNHVVKLLCGSLTRLLDSVRAIQAAGPWVQGPEQDLTQEALFVYTQVFCHALHIMAMLHPEVCEPLYVLALETLTCYETLSKTNPSVSSLLQRAHEQRFLKSIAEGIGPEERRQTLLQKMSSF
B3: the “Difference (log2), PP1 vs untreated” value in assay [1] (log2 difference, pairwise comparison PP1 vs untreated, label-free quantification, 3 replicates each) came out at 1.751. Moreover, the “Difference (log2), untreated vs GFP” value with GFP-14-3-3β (log2 difference, pairwise comparison untreated vs GFP, label-free quantification, 3 replicates each) stood at 0.9703.

B4: DSG2 (protein, UniProt Q14126 50-1118, looked up)
Desmoglein-2: AWITAPVALREGEDLSKKNPIAKIHSDLAEERGLKITYKYTGKGITEPPFGIFVFNKDTGELNVTSILDREETPFFLLTGYALDARGNNVEKPLELRIKVLDINDNEPVFTQDVFVGSVEELSAAHTLVMKINATDADEPNTLNSKISYRIVSLEPAYPPVFYLNKDTGEIYTTSVTLDREEHSSYTLTVEARDGNGEVTDKPVKQAQVQIRILDVNDNIPVVENKVLEGMVEENQVNVEVTRIKVFDADEIGSDNWLANFTFASGNEGGYFHIETDAQTNEGIVTLIKEVDYEEMKNLDFSVIVANKAAFHKSIRSKYKPTPIPIKVKVKNVKEGIHFKSSVISIYVSESMDRSSKGQIIGNFQAFDEDTGLPAHARYVKLEDRDNWISVDSVTSEIKLAKLPDFESRYVQNGTYTVKIVAISEDYPRKTITGTVLINVEDINDNCPTLIEPVQTICHDAEYVNVTAEDLDGHPNSGPFSFSVIDKPPGMAEKWKIARQESTSVLLQQSEKKLGRSEIQFLISDNQGFSCPEKQVLTLTVCECLHGSGCREAQHDSYVGLGPAAIALMILAFLLLLLVPLLLLMCHCGKGAKGFTPIPGTIEMLHPWNNEGAPPEDKVVPSFLPVDQGGSLVGRNGVGGMAKEATMKGSSSASIVKGQHEMSEMDGRWEEHRSLLSGRATQFTGATGAIMTTETTKTARATGASRDMAGAQAAAVALNEEFLRNYFTDKAASYTEEDENHTAKDCLLVYSQEETESLNASIGCCSFIEGELDDRFLDDLGLKFKTLAEVCLGQKIDINKEIEQRQKPATETSMNTASHSLCEQTMVNSENTYSSGSSFPVPKSLQEANAEKVTQEIVTERSVSSRQAQKVATPLPDPMASRNVIATETSYVTGSTMPPTTVILGPSQPQSLIVTERVYAPASTLVDQPYANEGTVVVTERVIQPHGGGSNPLEGTQHLQDVPYVMVRERESFLAPSSGVQPTLAMPNIAVGQNVTVTERVLAPASTLQSSYQIPTENSMTARNTTVSGAGVPGPLPDFGLEESGHSNSTITTSSTRVTKHSTVQHSYS
In the case of B4, the “Difference (log2), PP1 vs untreated” value in assay [1] (setting [2]) is given as -0.1595 log2. The “Difference (log2), untreated vs GFP” value in the assay with GFP-14-3-3β (setting [3]) is on record as -0.9434 log2.

B5: LIMA1 (protein, UniProt Q9UHB6 1-759, looked up)
LIM domain and actin-binding …: MESSPFNRRQWTSLSLRVTAKELSLVNKNKSSAIVEIFSKYQKAAEETNMEKKRSNTENLSQHFRKGTLTVLKKKWENPGLGAESHTDSLRNSSTEIRHRADHPPAEVTSHAASGAKADQEEQIHPRSRLRSPPEALVQGRYPHIKDGEDLKDHSTESKKMENCLGESRHEVEKSEISENTDASGKIEKYNVPLNRLKMMFEKGEPTQTKILRAQSRSASGRKISENSYSLDDLEIGPGQLSSSTFDSEKNESRRNLELPRLSETSIKDRMAKYQAAVSKQSSSTNYTNELKASGGEIKIHKMEQKENVPPGPEVCITHQEGEKISANENSLAVRSTPAEDDSRDSQVKSEVQQPVHPKPLSPDSRASSLSESSPPKAMKKFQAPARETCVECQKTVYPMERLLANQQVFHISCFRCSYCNNKLSLGTYASLHGRIYCKPHFNQLFKSKGNYDEGFGHRPHKDLWASKNENEEILERPAQLANARETPHSPGVEDAPIAKVGVLAASMEAKASSQQEKEDKPAETKKLRIAWPPPTELGSSGSALEEGIKMSKPKWPPEDEISKPEVPEDVDLDLKKLRRSSSLKERSRPFTVAASFQSTSVKSPKTVSPPIRKGWSMSEQSEESVGGRVAERKQVENAKASKKNGNVGKTTWQNKESKGETGKRSKEGHSLEMENENLVENGADSDEDDNSFLKQQSPQEPKSLNWSSFVDNTFAEEFTTQNQKSQDVELWEGEVVKELSVEEQIKRNRYYDEDEDEE
Regarding B5, the “Difference (log2), PP1 vs untreated” value in assay [1] (setting [2]) is -0.1559 log2. The “Difference (log2), untreated vs GFP” value with GFP-14-3-3β (setting [3]) is listed as -0.3717 log2.

These data come from PMC7367873, “Dissecting the sequence determinants for dephosphorylation by the catalytic subunits of phosphatases PP1 and PP2A” (Nature Communications, 2020).
